Earlier results as cited in patent US20240408194A1, “DNA ORIGAMI SUBUNIT VACCINE FOR PREVENTION OF SARS-CoV-2 VARIANT INFECTION” (priority 2021, published 2024).

Molecular target: T1, fibrinogen (Homo sapiens, UniProt P02675+P02679)
T1 sequence (P02675 31-491): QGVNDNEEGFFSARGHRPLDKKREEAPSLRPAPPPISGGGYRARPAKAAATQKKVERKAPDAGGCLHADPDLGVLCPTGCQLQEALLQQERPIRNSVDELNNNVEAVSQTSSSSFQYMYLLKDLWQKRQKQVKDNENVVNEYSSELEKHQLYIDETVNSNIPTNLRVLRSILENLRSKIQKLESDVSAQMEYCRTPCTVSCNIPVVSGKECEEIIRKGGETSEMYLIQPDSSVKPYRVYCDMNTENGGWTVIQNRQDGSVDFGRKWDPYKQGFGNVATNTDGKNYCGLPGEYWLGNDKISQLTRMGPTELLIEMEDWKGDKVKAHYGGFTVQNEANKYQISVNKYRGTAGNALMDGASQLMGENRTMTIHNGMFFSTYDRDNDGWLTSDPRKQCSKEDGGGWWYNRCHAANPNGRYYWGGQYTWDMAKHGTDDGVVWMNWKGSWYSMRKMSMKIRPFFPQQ
T1 sequence (P02679 27-453): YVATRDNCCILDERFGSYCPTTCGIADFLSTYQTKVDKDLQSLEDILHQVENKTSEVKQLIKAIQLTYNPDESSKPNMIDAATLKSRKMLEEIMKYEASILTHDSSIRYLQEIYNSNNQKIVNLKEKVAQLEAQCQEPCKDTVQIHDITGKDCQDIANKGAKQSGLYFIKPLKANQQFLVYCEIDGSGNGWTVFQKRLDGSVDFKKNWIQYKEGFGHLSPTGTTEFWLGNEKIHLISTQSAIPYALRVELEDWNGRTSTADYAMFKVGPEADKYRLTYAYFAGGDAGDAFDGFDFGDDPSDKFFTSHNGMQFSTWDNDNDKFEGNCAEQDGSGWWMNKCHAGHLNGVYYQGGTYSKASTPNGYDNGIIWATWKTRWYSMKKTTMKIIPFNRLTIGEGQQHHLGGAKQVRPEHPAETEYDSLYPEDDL
T1 sequence (P02671 20-629 partner limits assumed): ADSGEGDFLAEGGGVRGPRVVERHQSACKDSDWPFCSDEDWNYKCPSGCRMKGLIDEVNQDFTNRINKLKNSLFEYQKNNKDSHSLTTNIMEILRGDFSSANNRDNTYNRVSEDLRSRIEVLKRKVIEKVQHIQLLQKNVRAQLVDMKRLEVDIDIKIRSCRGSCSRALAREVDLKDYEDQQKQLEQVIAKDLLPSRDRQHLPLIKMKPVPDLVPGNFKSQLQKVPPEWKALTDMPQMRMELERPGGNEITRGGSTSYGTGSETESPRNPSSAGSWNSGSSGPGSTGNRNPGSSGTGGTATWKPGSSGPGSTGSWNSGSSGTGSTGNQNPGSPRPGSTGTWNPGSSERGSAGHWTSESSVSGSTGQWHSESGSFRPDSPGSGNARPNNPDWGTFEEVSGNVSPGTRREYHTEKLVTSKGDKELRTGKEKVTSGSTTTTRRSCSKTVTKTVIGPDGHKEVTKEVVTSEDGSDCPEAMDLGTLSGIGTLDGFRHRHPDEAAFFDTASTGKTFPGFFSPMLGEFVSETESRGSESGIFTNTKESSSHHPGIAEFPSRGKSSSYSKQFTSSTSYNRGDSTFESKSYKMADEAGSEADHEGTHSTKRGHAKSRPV
Details: hydrophobic pocket domains of fibrinogen; cited from earlier work

In the case of “GPRPXX: short fibrin knob peptide (SEQ ID NO: 3) that recognizes hydrophobic pocket domains of fibrinogen”, the Kd is listed as 5 to 10 µM.
